The nanobody polyreactivity screen of Harvey et al. (2022)

Assay: yeast display, Sf9 membrane polyspecificity reagent, FACS + sequencing; frameworks hold sequencing errors
How it was run: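 Using colony PCR, genes from sorted yeast display clones were amplified, then sequenced on MiSeq at 2 × 250 and filtered by CDR length. The clones had been stained with 10% biotinylated, detergent-solubilized Sf9 membrane reagent for 1 hour at 4 °C and sorted by FACS into low and high (top ~1%) gates on anti-HA and streptavidin fluorescence. Polyreactivity labels come from the gate of origin.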

| Sequence | polyreactivity (PSR sort gate) |
| --- | --- |
| QVQLVESGGGLVQAGGSLRLSCAASVSIFQKNARGWYRQAPGKERELVAVITRGGTSTYYADSVKGRFTISRDNAKNTVYLQMNSLKPEDTAVYDCAADSGFDTAPYDFWGQGTQVTVSS | low polyreactivity |
| QVQLVESGGGLVQAGGSLRLSCAASGSTFVSNAMGWDRQAPGKERELVAAISSSGGRTSYADSEKGRFTISRDNAKNTVYLQMTSPKPEDTAVYYCAARFKSVDYVQYYYWGQGTQVTVSS | low polyreactivity |
| QVQLVESGGGLVQAGGSLRLSCAASGSTIFIYAMGWYRQAPGKERELVAAISGSGGTTYYADSVKGRFTISRDNAKITVYLQMNSLKPEDTAVYYCATDITLWYAYSHEGLYIGYYWGQGTQVSVSS | low polyreactivity |
| QVQIVESGGGLVQAGGSLRFSCAASGRTFGTNTMGWYRQAPGKERELVATISSSSGSTYYADSVKGRFTISRDNAKNTVYLQMNSLKPEDTAVYYCAALSRWRYKRYDYWGQGTQVTVSS | high polyreactivity |
| QVQLVESGGGLVQAGGSLRLSCAASGSIFYWNAMGWYRQAPGKERELVAAISSSGSSTYYADSVKGRFTISRDNAKNTVYLQMNSLKPEDTAVYYCAADNYNSGGTRHMYYWGQGTQVTVSS | high polyreactivity |
| QVQLVESGGGLVQAGGSLRLSCAASGYIYGVYAMGWYRQAPGKERELVAAISYGVGSTYYADSVKGRFTISRDNAKNTVYLQMNSLKPEDTAVYYCAAEDTQVRWSPVRPLEYYCGQGTQVTVSS | low polyreactivity |
| QVKLVESGGGLVQAGGSLRLSCPASGSTFYYNAMGWYRQAPGKERELVARISRSGGSTYADSVKGRFTISRDNAKNTVYLQMNSLKPEDTAVYYCNADAYGTPEFTSYAVRYDYWGQGTQVTVSS | low polyreactivity |
| QVQLVESGGGLVQAGGSLRLSCAASGRIFWNYAMGGYRQAPGKERELVASINWSGGSTYYADSVKGRFTISRDNAKNTVYLQMNSLKPEDTAVYYCNKDGRVYLDHDYWGQGTQVTVSS | low polyreactivity |
| QVQLVESGGGLVQAGGSLRLSCAASGSIFFPNAMGWYRQAPGKERELVAAIRGGTNTYYADSVKGRFTISRDNAKTTVYLQLNSLKPEDTAVYYCAARRSSHWFTYDYWGQGTQVTVSS | high polyreactivity |
| QVRLVESGGGLVQAGGSLRLSCAASGRIFQYYSMGWYRQAPGKERELVASITSGGGSTYYADSVKGRFTISRDNAKNTVYLQMNSLKPEDTAVYYCNARWYGLSTRYDYWGQGTQVTVSS | low polyreactivity |
| QVQLVESGGRLVQAGGSLRLSCASSGSTFVPNDMGLYRQAPGKERELVAAISRSGDDTYYADSVKGRFTISRDNAKNNVYLQMNSLKPVYTAVYYCAASAGYAYNYWGQGTQVTVSS | low polyreactivity |
| QVQLVVSGGGLVQAGGSLRLSCAASGSIFYRNAMGWYRQAPGKDRELVAAISFSGGSTYYADSVKARFSISRDNAKNTVYLQMNSLKPEDTAVYYCAAEAYPSWFYVITGFGIYDYWGQGTQGTVSS | high polyreactivity |
| QVQLVESGGGLVQAAGSLRLSCAASGSIAMGWYRQAPGKERELVATISSSGGSTYYADSVKGRFTISRDNAKNTVYLQMNSLKPEDTAVYYCAAGGYTLYHAWGYYWGQGTQVTVSS | low polyreactivity |
| QVQLVESGGGLVQAGGSLRLSCAASGSIFDIYGMGWYRQAPGKERELVASISGGAGSTNYADSVKGRFTISRDTAKNTVYLQMNWLKPEDTAVYYCAAEVYVPDYFQHKFDVEYEYWGQGTQVTVSS | low polyreactivity |
| QVQLVESGGGLVQAGGSLRLSCAASGITFYRYAMGWYRQAPGKERELVAAITSGGGRTYYADSVKGRFTISRDNAKNTVYLQMNSLKPEDTAVYYCNAADYTAYGQGEYWGQGTQVTVSS | high polyreactivity |
| QVQLVESGGGLVQAGGSLRLSCAASGSTSWSNARGWYRQAPGKERELLAAITTGASTYYADSVKGRFTMSRDNAKNTVYYQMNSLKPEDTAVYYCAADPWVLWSYYYWGQGTQVTVSS | low polyreactivity |

| Sequence | polyreactivity (PSR sort gate) |
| --- | --- |
| QVQLVESGGGLVQAGGSLRLSCAACGSIFYYYAMGWYRQAPGKERELVAAITVSGGRTYYADSVKGRFTISRDNAKNSVYLQMNSLKPEDTAVYYCAARRGRYSYYYWGQGTQVTVSS | high polyreactivity |
| QVQLVESGGGIVQAGGSLRLSCAASGRNSNRYAMGWYRQAPGKEREFVAAISKSGTSTYYADSVKGRFTISRDNAKNTVYLQMNSLKPEDTAVYYGAAKTGVGLRVNSGIGFYYWGQGTQVTVSS | high polyreactivity |
| QVQLVESGGGLVQAGGSLRLSCAASGFTFYSYAMGWYRQAPGKERELVAAISWSGTRTYYADSVKGRFTISRDNAKNTVYLQMNSLKPEDTAVFYCAARGYRYGYGYWGQGTQVTVSS | high polyreactivity |
| QVQLVESGGGLVQAGGSLRLSCAASGRTFVPYAMGWYRQAPGKEREFVAVITWGGGSTYYADSVKGRFTISRDNAKNTVYLQMNSLKPEDTAVYYCAARNRRATGLGSRYGYWGQGTQVTVSS | high polyreactivity |
| QVQLVESGGGLVQAGGSLRLSCAASGSIFRNNAMGWYRQAPGKERELVAVINSRGGTTYYADSVKGRFTISRDNAMNPVYLQMNSLIPEDTAVYYCAARIRTSDRRYYWGQGTQVTVSS | high polyreactivity |
| QVQLVQSGGGLVQAGGSHRLSCAASGFIFPVYAMGWYRQPPGKERELFASMTTGGSTNYADSVKGRFTITRDNAKNSVYLQMNSLKPEDTAVYDCNQDTPASLANQYNYGGQGTQVTVSS | low polyreactivity |
| QVQLVESGGGLVQAGGSLRLSCAASGRIFSYYTMGWYRQAPGTERELVAAITWGGGSTSYADSVKGRFTISRDNAKNTVYLQMNSLKPEDTAVYYCAESPGANRMDYWGQGTQVTVSS | low polyreactivity |
| QVQLVESGGGLVQAGGSLRLSCAASGSIFPSNAMGWYRQAPGKERELVAGITRGGSTNYADSVKGRFTISRDNAKNTVYLQMNSLKPEDTAVYYCAADSGFDTAPYDYWGQGTQVTVSS | low polyreactivity |
| QVQLVESGRGLGQAGGSLRLSCAASVSTFDKYDKGRSRQAPGKEREFVAAISSTGASTYYADSVKGRFTISRDNAKNTVYLQMNSLKPEDTAVYYCAADVPVGYGDDYWGQGTQVTESS | low polyreactivity |
| QVQLVESGGGLVQAGGSLRLICAASGLTFVYYTKRSYTQAPGKEREFVAGINSGGSTYYADSVKGRFTISRDNAKNTVYVQMNSLKPVDTAVYYCAAVERGYRRFRRIYDYWGQGTQVTVSS | high polyreactivity |
| QVQLVESGGGLVQEGGSLRLTCAASGITFIYYAMGWYRQAPGKERELVAAISTGGSTYYADSVKGRCTISRDNAMNTVYLQMISLKPEDTAVYYWNALRKSLRGGDYWGQGTQVTVSS | high polyreactivity |
| QVHLVESGGGLLQAGGSLRLSCAASGRTFGHNAMGWNRQAPGKERELVAAISSGGNTYYADSVKGRFTISRDNAKNTVYLQMNSLKPEDTAVYYCAAVTVIGGEYDYWGQGTQVTVSS | low polyreactivity |
| QVQLVESGGGLVQAGGSLRLSCAASGIIFEYYDMGWYRQAPGKERELVAAIDSGGSTYYADSVKGRFTISRDNAKNTVYLQMNSLKPEDTAVYYCAAETVRYEWGESPAALFDYWGQGTQVTVSS | low polyreactivity |
| QVQLVESGGGLVQAGGSLRISCAASGRIFRAYAMGWYRQAPGKERELVADIRSTGSTNYADSVKGRFTISRDNAKNTVYLQMNSLNPEDTAGYYCAARWRSLRFGSGFEYWGQGTQVTVSS | high polyreactivity |
| QVQLVESGGGLVQAGGSLRLSCAASGIIFYGYAMGWYRQAPGKERELVAAITYSGGSTYYADSVKGRFTISRDNAKNTVYLQMNSLKPEDTAVYYCAAYDAYSPYQALYDYWGQGTQVTVSS | low polyreactivity |
